First the molecules themselves.
T1: GPC3-A peptide
T1 construct: Peptide of the GPC3 antigen
T1 peptide: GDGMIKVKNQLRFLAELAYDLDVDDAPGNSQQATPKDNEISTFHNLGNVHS

T2: GPC3-B peptide
T2 peptide: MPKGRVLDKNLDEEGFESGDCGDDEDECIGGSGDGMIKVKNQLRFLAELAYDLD

T3: GPC3-B3 (human)
T3 construct: Overlapping peptide of GPC3-B
T3 peptide: DKNLDEEGFESG

T4: GPC3-B8
T4 construct: also called long fragments containing GPC3-B3
T4 peptide: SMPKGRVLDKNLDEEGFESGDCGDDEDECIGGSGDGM

B1: GC90 (antibody, V domains shown)
VH: QVQLLESGGGLVQPGGSLRVSCAASGFTFNSYAMSWVRQAPGKGLEWVASIKSSGDRVQYADSVKGRFTISRDNSKNTVYLEMNSLRAEDTAIYYCAKPQWSSPQRTFEVWGQGTPVTVSS
VL: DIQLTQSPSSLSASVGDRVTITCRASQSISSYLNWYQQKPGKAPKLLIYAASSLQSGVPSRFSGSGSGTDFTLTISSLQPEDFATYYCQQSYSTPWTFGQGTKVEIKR
notes: Human IgG1 / kappa; also called GC90 monoclonal antibody; humanized monoclonal antibody GC90
B2: hYP7HM (antibody, human IgG1, kappa, L234A L235A, V domains shown)
VH: EVQLVESGGGLVQPGGSLRLSCAASGFTFNKNAMNWVRQAPGKGLEWVGRIRNKTNNYATYYADSVKGRFTISRDDSKNSLYLQMNSLKTEDTAVYYCVAGNSFAYWGQGTLVTVSA
VL: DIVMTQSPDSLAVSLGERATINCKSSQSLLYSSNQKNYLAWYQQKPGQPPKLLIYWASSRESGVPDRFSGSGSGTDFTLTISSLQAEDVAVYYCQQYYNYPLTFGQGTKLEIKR
notes: Control anti-GPC3 antibody; also called control antibody hYP7HM; control anti-GPC3 antibody hYP7HM
B3: GC139 (antibody, V domains shown)
VH: EVQLVESGGGLIQPGGSLRLSCAASGFTFSSYAMHWVRQAPGKGLEYVSAISSNGGSTYYADSVKGRFTISRDNSKNTLYLQMSSLRPDDTAVYYCVRGWIRPPPGSFDLWGQGTTVTVSS
VL: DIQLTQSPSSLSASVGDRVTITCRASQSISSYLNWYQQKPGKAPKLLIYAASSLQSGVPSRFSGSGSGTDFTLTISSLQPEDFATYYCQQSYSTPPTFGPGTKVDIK
notes: Detected with anti-human IgG-Fc-HRP
B4: GC147 (antibody, V domains shown)
VH: B3 VH with I12V, D62N, S84G, P88A, D89E, T91M, T116P
VL: AIRLTQSPSSLSASVGDRVSITCRASQSISTFLNWYQQKPGKAPNLLIYSASTLQSGVPSRFSGSGSGTDFTLTISSLQPEDFATYYCQQSYSSPPTFGQGTKLEIK
notes: as for B3
B5: GC053 (antibody, V domains shown)
VH: B3 VH with V5L, I12V, D62N, S84G
VL: NIQMTQSPSSLSAFVGDRVTITCRASQSISRYLNWYQHKPGQAPKLLMYAASTLQDEVPSRFSGSGSGTYFTLTISSLEPEDFATYYCQQSYSTPPTFGGGTKVEIK
notes: as for B3
B6: GC037 (antibody, V domains shown)
VH: B3 VH with V5L, I12V, D62N, D73H, N74P, T78I, Y80F, Q82E, S84N, T116P
VL: AIRLTQFPSSLSASVGDRVTITCRARQSIDNYLNWYQEKPGKAPKLLIYAASSLQSGVPSRFSGSGSGTEFTLTISSLQPDDFAAYYCQQSYDSPPTFGQGTKVEIK
notes: as for B3
B7: GC025 (antibody, V domains shown)
VH: EVQLLESGGGVVQPGRSLRLSCAASGFTFSSYAMHWVRQAPGKGLEWVAVISYDGSNKYYADSVKGRFTISRDNSKNTLYLQMNSLRAEDTAVYYCARRQRAAIDYWGQGTTVTVSS
VL: DIQLTQSPSSLSASVGDRVTITCRASQSISSYLSWYQQKPGKAPKLLIYGASSLQSGVPSRFSGSGSGTDFTLTISSLQPEDFATYSCQQSYSTQFTFGPGTKVDIK
notes: as for B3
B8: GC008 (antibody, V domains shown)
VH: EVQLLESGGGLVQPGGSMRLSCAASEIDFSVYALGWSRQAPGKQRELVATITTSSTTTYADSVKGRFTISRDNAKNTVYLQMNSLKPEDTAVYYCHTLRRTGSGIVPGRIWGQGTPVTVSS
VL: DIQLTQSPSSLSASVGDRVTITCQASQDIDNSVTWYQQRPGKAPSLLISDASILESGVPSRFSGRGSGTHFTLSITSLQPEDIATYYCQQYENLPITFGQGTRLEIK
notes: Detected with anti-human IgG-Fc-HRP in the ELISA, so it carried a human Fc
B9: GC011 (antibody, V domains shown)
VH: EVQLLESGGGVVQPGRSLRLSCAASGFTFSSYGMHWVRQAPGKGLEWVAVISYDGSNKYYADSVKGRFTISRDNSKNTLYLQMNSLRAEDTAVYYCAKNPSLDYWGQGTTVTVSS
VL: NIQMTQSPSSLSASVGDRVTITCRASQSITRYLNWYQQKPGKGPKLLIYAASRLQSGVPSRFSGSGSGTDFTLTISSLQPEDFATYYCQQSHSIPRTFGQGTKLEIK
notes: as for B3
B10: GC067 (antibody, V domains shown)
VH: EVQLLESGGGVVQPGRSLRLSCAASGFTFSSYAMHWVRQAPGKGLEWVAVISYDGSNKYYADSVKGRFTISRDNSKNTLYLQMNSLRAEDTAVYYCARRLRGSGMDVWGQGTPVTVSS
VL: not shown
notes: as for B3
B11: GC035 (antibody, V domains shown)
VH: B10 VH with Q13R, L100K, R101S, G104S, M105F, V107Y
VL: DIQLTQSPSSLSASVGDRVTITCRAGQTINNYLHWYQQKPGKAPKLLIFAASSLQSGVPSRFSGSGSGTDFTLTISSLQPEDFATYYCQQSYSPPLTFGGGTRVEIK
notes: as for B3
B12: GC010 (antibody, V domains shown)
VH: B10 VH with R99D, L100E, R101S, G102R, S103R, G104K, M105F, V107Y, P113T
VL: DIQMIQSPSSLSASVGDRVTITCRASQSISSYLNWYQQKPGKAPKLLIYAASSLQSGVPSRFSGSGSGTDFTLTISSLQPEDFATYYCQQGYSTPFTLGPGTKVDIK
notes: as for B3

Where a chain is given by its changes, count along the chain named.

T5 sequence (Q8CFZ4 25-558 limits assumed): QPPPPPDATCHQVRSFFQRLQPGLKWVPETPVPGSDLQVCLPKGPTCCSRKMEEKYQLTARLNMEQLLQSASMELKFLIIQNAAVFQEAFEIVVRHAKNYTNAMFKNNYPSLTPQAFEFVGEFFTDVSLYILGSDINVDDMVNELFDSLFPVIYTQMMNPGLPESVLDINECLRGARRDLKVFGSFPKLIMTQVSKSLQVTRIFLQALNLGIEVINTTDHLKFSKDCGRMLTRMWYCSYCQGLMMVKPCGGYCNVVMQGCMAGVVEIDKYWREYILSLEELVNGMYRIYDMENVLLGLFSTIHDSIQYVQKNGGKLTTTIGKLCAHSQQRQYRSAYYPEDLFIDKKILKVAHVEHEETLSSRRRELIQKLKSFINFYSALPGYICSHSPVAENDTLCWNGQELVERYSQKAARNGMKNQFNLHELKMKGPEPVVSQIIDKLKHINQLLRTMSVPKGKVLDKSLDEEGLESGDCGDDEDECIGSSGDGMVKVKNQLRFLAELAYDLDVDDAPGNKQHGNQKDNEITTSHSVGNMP

One assay has as its target T5, Mouse GPC3 (ACRO Biosystems, GP3-M52H3) (mouse, UniProt Q8CFZ4 25-558).
T5 construct: also called mouse Gpc3 protein; mouse GPC3 protein
Briefly: ELISA, GPC3 protein coated at 6 µg/mL; × indicates no affinity recognition. For orientation: ELISA stands for enzyme-linked immunosorbent assay.
With B1, the binding result is reported as “no binding (tested: 30 nM)”.

Another assay addresses T1, GPC3-A peptide. In words: ELISA, peptide coated at 6 µg/mL.
Take B2: the binding result is “binds”.

A further assay has as its target T2, GPC3-B peptide. In words: ELISA, peptide coated at 6 µg/mL.
Turning to B3, the binding result is “binds”.

Turning to B4, the binding result is on record as “binds”.

Take B5: the binding result is on record as “binds”.

Consider B6, for which the binding result was “binds”.

As for B7, the binding result is “binds”.

Take B1: the binding result is listed as “binds”.

Take B8: the binding result is recorded as “binds”.

On to B9, for which the binding result is recorded as “binds”.

With B10, the binding result is reported as “binds”.

For B11, the binding result was “binds”.

As for B12, the binding result is “binds”.

The target in another assay is T3, GPC3-B3. In words: ELISA, overlapping peptide coated at 6 µg/mL.
For the molecule B1, the binding result was “binds”.

The target in the next assay is T4, GPC3-B8. In words: ELISA, overlapping peptide coated at 6 µg/mL.
B1: the binding result is reported as “binds”.

For the origin of these results see EP4725968A1 (Salubris (Chengdu) Biotech Co., Ltd., dated 2024).
